In paper PMC4117760:

Columns and labels:
[1] = test system: MBP-CYV VP3 (Culex Y virus (CYV)); test: EMSA
[2] = target: MBP-DXV VP3 (Drosophila X virus (DXV)) (UniProt Q96724); test: EMSA
Sequence of UniProt Q96724 (Q96724 whole entry): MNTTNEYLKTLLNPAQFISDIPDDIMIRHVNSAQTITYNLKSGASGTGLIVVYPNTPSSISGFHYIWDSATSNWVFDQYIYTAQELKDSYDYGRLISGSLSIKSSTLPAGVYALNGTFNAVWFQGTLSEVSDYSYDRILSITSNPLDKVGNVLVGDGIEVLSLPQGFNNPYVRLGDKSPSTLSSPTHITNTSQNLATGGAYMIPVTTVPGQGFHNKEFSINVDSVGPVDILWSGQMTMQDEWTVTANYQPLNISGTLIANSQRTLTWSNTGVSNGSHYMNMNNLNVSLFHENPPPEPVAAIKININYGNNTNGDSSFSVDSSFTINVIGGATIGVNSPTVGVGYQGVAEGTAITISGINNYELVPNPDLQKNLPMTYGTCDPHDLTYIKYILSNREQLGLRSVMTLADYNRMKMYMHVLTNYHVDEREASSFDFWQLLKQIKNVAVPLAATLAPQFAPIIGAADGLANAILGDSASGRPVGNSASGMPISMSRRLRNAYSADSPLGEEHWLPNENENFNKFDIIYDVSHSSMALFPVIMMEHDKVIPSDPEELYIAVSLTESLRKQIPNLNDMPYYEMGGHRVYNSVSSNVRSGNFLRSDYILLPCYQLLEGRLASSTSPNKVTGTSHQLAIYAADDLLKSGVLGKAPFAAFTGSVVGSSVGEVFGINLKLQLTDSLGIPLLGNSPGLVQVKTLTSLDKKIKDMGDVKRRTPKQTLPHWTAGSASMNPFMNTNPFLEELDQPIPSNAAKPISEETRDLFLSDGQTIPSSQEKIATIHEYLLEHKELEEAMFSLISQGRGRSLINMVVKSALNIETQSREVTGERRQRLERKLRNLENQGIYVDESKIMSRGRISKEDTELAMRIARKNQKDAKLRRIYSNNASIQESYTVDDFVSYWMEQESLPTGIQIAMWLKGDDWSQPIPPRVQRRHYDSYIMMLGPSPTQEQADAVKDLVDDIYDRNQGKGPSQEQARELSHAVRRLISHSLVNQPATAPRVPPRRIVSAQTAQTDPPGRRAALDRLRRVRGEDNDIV

With 126-nt FLuc dsRNA as the substance, how does the Kd [1] read?
Its Kd is 116 nM.

And the Kd [2]?
Its Kd is 166 nM.
